B1: GAGE1 (parent)
chain: RPRRYVQPPEMIGPMRPEQFSDEV
B2: POMT2 (parent)
chain: LRGGGQVLLGWTLHYFPFFLMGRV
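Further: lentivirally expressed fusions sorted by FACS into six bins by GFP to DsRed ratio, PSI derived from sequencing read proportions per bin multiplied by bin number.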

The variants in one data set derive from B1. Put plainly: protein stability index of a GFP-peptide fusion (GPS, HEK-293T) (PSI 1-6); higher = more stable. Particulars: c terminus: a fixed tail appended.
With RPRRYVQPPTMIGPMRPEQFSDEV, the protein stability index is 4.33.
As for RPRRYVQPPNMIGPMRPEQFSDEV, the protein stability index worked out at 3.97.
For RPRRYVQPPEMIGPMRPEQFTDEV, the protein stability index worked out at 3.71.
With RPRRYVQPPEMIGPMRPEQFQDEV, the protein stability index was 3.79.
On to RPRRYVQPPEMIGPMRPEQFYDEV, for which the protein stability index was found to be 3.63.
With RPRRYVQPPEMIGPMRPEQFWDEV, the protein stability index was determined as 3.01.
As for RPRRYVQPPEMIGIMRPEQFSDEV, the protein stability index came out at 4.13.
Consider RPRRYVQPPEMIGSMRPEQFSDEV, for which the protein stability index came out at 4.13.
For RPRRYVQPPEMIGVMRPEQFSDEV, the protein stability index worked out at 4.2.
For the variant RPRRYVQPPEMIGQMRPEQFSDEV, the protein stability index is 4.23.
On to RPRSYVQPPEMIGPMRPEQFSDEV, for which the protein stability index came to 4.05.
Still for that read-out and setting: the figure for RPRAYVQPPEMIGPMRPEQFSDEV is 3.94; for RPRHYVQPPEMIGPMRPEQFSDEV it is 3.43.
For RPRGYVQPPEMIGPMRPEQFSDEV, the protein stability index worked out at 4.12.
On to RPRMYVQPPEMIGPMRPEQFSDEV, for which the protein stability index stood at 4.07.
RPRRYVQPPEMIGPMRPEQNSDEV: the protein stability index came out at 4.8.
Take RPRRYVQPPEMIGPMRPEQPSDEV: the protein stability index stood at 4.72.
RPRRIVQPPEMIGPMRPEQFSDEV: the protein stability index stood at 3.31.
Still for that read-out and setting: the figure for RPRRSVQPPEMIGPMRPEQFSDEV is 4; for RPRRAVQPPEMIGPMRPEQFSDEV it is 4.38.
On to RPFRYVQPPEMIGPMRPEQFSDEV, for which the protein stability index is 2.21.
On to RPSRYVQPPEMIGPMRPEQFSDEV, for which the protein stability index stood at 4.26.
For the variant RPIRYVQPPEMIGPMRPEQFSDEV, the protein stability index was determined as 4.23.
Still for that read-out and setting: the result for RPNRYVQPPEMIGPMRPEQFSDEV reads 4.07; that for RPRRYVQNPEMIGPMRPEQFSDEV, 4.22; that for RPRRYVQQPEMIGPMRPEQFSDEV, 3.37.
In the case of RPRRYVQIPEMIGPMRPEQFSDEV, the protein stability index stood at 3.27.
Take RPRRYVQWPEMIGPMRPEQFSDEV: the protein stability index is 3.09.
Regarding RPRRYVQFPEMIGPMRPEQFSDEV, the protein stability index turned out to be 3.41.
RPRRYVQPIEMIGPMRPEQFSDEV: the protein stability index stood at 3.57.
With RPRRYVQPMEMIGPMRPEQFSDEV, the protein stability index worked out at 3.92.
With RPRRYVQPPEMFGPMRPEQFSDEV, the protein stability index is 3.99.
For RPRRYVQPPEFIGPMRPEQFSDEV, the protein stability index was found to be 4.05.
As for RPRRYVQPPEPIGPMRPEQFSDEV, the protein stability index came to 4.53.
Still for that read-out and setting: the figure for RPRRYVQPPEEIGPMRPEQFSDEV is 3.88; for RPRRYVQPPEQIGPMRPEQFSDEV it is 3.84; for RPRRYVQPPEMIGPMRFEQFSDEV it is 3.58.
On the same count and under the same terms, the figure for RPRRYVQPPEMIGPMREEQFSDEV is 4.33; for RPRRYVQPPEMIGPMRMEQFSDEV it is 3.88.
Regarding RPRRYVQPPEMIGPMEPEQFSDEV, the protein stability index was 4.3.
RPRRYVQPPEMIGPMIPEQFSDEV: the protein stability index came out at 4.44.
For the variant RPRRYVQPPEMIGPMSPEQFSDEV, the protein stability index stood at 3.87.
RPRRYVQPPEMIGPKRPEQFSDEV: the protein stability index was determined as 4.48.
As to RPRRYVQPPEMIGPDRPEQFSDEV, the protein stability index was found to be 4.75.
Take RPRRYVQPPEMIGPERPEQFSDEV: the protein stability index turned out to be 4.78.
Still for that read-out and setting: the result for RPRRYVQPPEMIGPMRPEQFSFEV reads 2.16.
With RPRRYVQPPEMIGPMRPEQFSYEV, the protein stability index is 2.77.
Turning to RPRRYVQPPEMIGPMRPEQFSWEV, the protein stability index worked out at 2.53.
On the same count and under the same terms, the result for RPRRYVQPPEMIGPMRPEQFSGEV reads 3.62; that for RPRRYVGPPEMIGPMRPEQFSDEV, 3.3.
On to RRRRYVQPPEMIGPMRPEQFSDEV, for which the protein stability index worked out at 4.1.
Consider RWRRYVQPPEMIGPMRPEQFSDEV, for which the protein stability index turned out to be 2.14.
Turning to RPRRYVQPPEMIGPMRPEQFSDQV, the protein stability index turned out to be 3.63.
On to RPRRYVQPPEMIGPMRPEQFSDLV, for which the protein stability index is 3.08.
Same read-out and setting: the figure for RPRRYVQPPEMIGPMRPEQFSDIV is 2.92; for RPRRYVQPPEMIGPMRPEQFSDVV it is 3.77.
The same measure, in the same setting: the figure for RPRRYVQPPEMIGPMRPEQFSDDV is 3.77.
With RPRRYVQPPEMIGPMRPEQFSDGV, the protein stability index was found to be 3.46.
As for RPRRYMQPPEMIGPMRPEQFSDEV, the protein stability index was found to be 3.59.
Consider RPRRYNQPPEMIGPMRPEQFSDEV, for which the protein stability index was determined as 3.9.
Turning to RPRRYVQPPEMIGPMRPERFSDEV, the protein stability index came out at 3.71.
RPRRYVQPPEMIGPMRPEMFSDEV: the protein stability index came to 3.58.
As for RPRRYVQPPEMIGPMRPEKFSDEV, the protein stability index turned out to be 3.98.
With RPRRYVQPPEMIGPMRPEQFSDEA, the protein stability index turned out to be 4.52.
Still for that read-out and setting: the result for RPRRYVQPPEMIGPMRPEQFSDEL reads 3.74; that for RPRRYVQPPEMIGPMRPEQFSDEH, 4.46.
Consider RPRRYVQPPEMIKPMRPEQFSDEV, for which the protein stability index was determined as 3.72.
Still for that read-out and setting: the figure for RPRRYVQPPEMIMPMRPEQFSDEV is 4.14; for RPRRYVQPPEMIDPMRPEQFSDEV it is 4.63; for RPRRYVQPPEMINPMRPEQFSDEV it is 4.33.
With RPRRYVQPPEMIWPMRPEQFSDEV, the protein stability index is 3.56.
RPRRYVQPPEMIGPMRPCQFSDEV: the protein stability index came to 3.21.
On the same count and under the same terms, the result for RPRRYVQPPEMIGPMRPTQFSDEV reads 3.84.
As for RPRRYVQPPEMIGPMRPYQFSDEV, the protein stability index worked out at 3.51.
On to RPRRYVQPPEMIGPMRPVQFSDEV, for which the protein stability index was determined as 3.32.

Variants of B2 are the subject of another data set. The description is as above. Particulars: c terminus: a fixed tail appended.
Turning to LRGGGQVLLPWTLHYFPFFLMGRV, the protein stability index is 3.23.
For LRGGGQVLLIWTLHYFPFFLMGRV, the protein stability index came out at 1.92.
For the variant LRGGGQVLLQWTLHYFPFFLMGRV, the protein stability index turned out to be 3.64.
With LRGGGQVLLWWTLHYFPFFLMGRV, the protein stability index was determined as 2.32.
For the variant LRGGGQVLLSWTLHYFPFFLMGRV, the protein stability index came to 3.85.
Still for that read-out and setting: the figure for LRGGGQVLLFWTLHYFPFFLMGRV is 3.45; for LRGGGQVLLNWTLHYFPFFLMGRV it is 1.97.
Same read-out and setting: the result for LRGGGQVLLVWTLHYFPFFLMGRV reads 2.29; that for LRGGGQVLLYWTLHYFPFFLMGRV, 3.25; that for LRGGGQVLLTWTLHYFPFFLMGRV, 2.89.
LRGGGQVLLDWTLHYFPFFLMGRV: the protein stability index is 3.44.
As for LRGGGQVLLGWTLDYFPFFLMGRV, the protein stability index was 4.14.
As to LRGGGQVLLGWTLPYFPFFLMGRV, the protein stability index was 2.43.
Consider LRGGGQVLLGWTLFYFPFFLMGRV, for which the protein stability index stood at 3.28.
Regarding LRGGGQVLLGWTLYYFPFFLMGRV, the protein stability index turned out to be 3.36.
Turning to LPGGGQVLLGWTLHYFPFFLMGRV, the protein stability index worked out at 2.6.
Consider LLGGGQVLLGWTLHYFPFFLMGRV, for which the protein stability index stood at 2.63.
For LQGGGQVLLGWTLHYFPFFLMGRV, the protein stability index is 1.79.
The same measure, in the same setting: the figure for LDGGGQVLLGWTLHYFPFFLMGRV is 3.49.

Source of the values: the supplement of paper PMC10567573.
